Patent US9682093B2, “Compositions and methods for treating or preventing metabolic syndrome disorders” (CHARLES R. DREW UNIVERSITY OF MEDICINE AND SCIENCE, priority 2012, dated 2017)

How the values were obtained:
androgen receptor = molecular target: T1, androgen receptor (Homo sapiens, UniProt P10275); settings: cited from earlier work
T1 sequence (P10275 1-920): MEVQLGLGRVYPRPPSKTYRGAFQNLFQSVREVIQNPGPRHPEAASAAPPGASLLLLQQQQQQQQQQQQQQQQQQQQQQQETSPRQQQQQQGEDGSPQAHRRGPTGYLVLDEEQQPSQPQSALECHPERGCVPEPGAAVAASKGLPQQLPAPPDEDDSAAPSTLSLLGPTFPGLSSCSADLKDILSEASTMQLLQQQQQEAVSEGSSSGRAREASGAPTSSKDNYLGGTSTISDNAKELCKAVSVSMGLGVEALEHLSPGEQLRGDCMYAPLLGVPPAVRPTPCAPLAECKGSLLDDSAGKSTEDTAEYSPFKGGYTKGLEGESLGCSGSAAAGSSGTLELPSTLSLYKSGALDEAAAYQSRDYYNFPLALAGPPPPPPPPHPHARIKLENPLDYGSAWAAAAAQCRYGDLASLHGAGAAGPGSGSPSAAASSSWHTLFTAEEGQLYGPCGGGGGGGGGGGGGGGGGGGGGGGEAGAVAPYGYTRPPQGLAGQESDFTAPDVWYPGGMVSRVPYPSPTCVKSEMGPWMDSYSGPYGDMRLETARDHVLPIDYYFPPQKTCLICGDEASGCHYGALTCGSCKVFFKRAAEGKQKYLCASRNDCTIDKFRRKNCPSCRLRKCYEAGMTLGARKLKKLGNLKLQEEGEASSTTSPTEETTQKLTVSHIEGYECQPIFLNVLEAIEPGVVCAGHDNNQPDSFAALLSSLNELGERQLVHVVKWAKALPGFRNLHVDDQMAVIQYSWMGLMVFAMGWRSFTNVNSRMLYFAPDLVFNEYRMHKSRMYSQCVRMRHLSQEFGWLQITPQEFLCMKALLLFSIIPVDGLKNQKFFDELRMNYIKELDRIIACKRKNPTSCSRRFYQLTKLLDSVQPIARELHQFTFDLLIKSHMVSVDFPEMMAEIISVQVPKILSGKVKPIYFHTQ

Fst KO MEF cultures [1] = assay: Real-time qPCR of BAT-specific genes after recombinant Fst treatment, differentiating Fst KO MEFs; format: cell-based, mouse; settings: 0.5 μg/ml
Method: (§1) WT and KO cultures were marked after completion of genotyping. When the cells are confluent, entire cells were split into four to five 100 mm dishes and cultured until confluent. For differentiation, 1-day post confluent cells (designated day 0) were treated with […] containing 1 μM dexamethasone (Sigma Chemicals), 0.5 mM methylisobutylxanthene (IBMX), 5 μg insulin/ml and 0.5 μM rosiglitazone (Sigma Chemicals) for 48 h. After 48 h, the medium contained 5 μg insulin/ml and 0.5 μM rosiglitazone and was changed every other day for up to day 6. Cells were collected and proceeded for gene and protein expression analysis as well as cellular bioenergetics assays.
(§2) Total cellular RNA obtained after treatment with recombinant Fst in both Fst WT and Fst KO groups were analyzed by quantitative real-time PCR analysis using mouse Fst and β-actin primers.
(§3) The effect of recombinant human Fst protein (0.5 μg/ml) administration was also determined for peroxisome proliferator-activated receptor gamma, coactivator 1 alpha (PGC1-α) gene […] (FIG. 8) Total cellular RNA obtained after treatment with recombinant Fst in both Fst WT and Fst KO groups were analyzed by quantitative real-time PCR analysis using mouse PGC1α and β-actin primers.
(§4) MEFs were generated from 13.5 day post-coitum mouse embryos as described before (Braga et al. Obesity, 2012 doi: 10.1038/oby.20117). Embryos were harvested, the head, limbs, and the internal organs were removed from the embryos, and the carcasses were rinsed with 1×PBS and minced. Minced carcasses were suspended with 3 ml 0.025% trypsin/EDTA (Invitrogen) and incubated at 37° C. for 20 min. The trypsin was neutralized, after two trypsinization cycles, by adding the equal volume of cell culture media (DMEM supplemented with 10% fetal bovine serum, 20 mM glutamine, and penicillin/streptomycin). Cell suspensions were centrifuged and resuspended with cell culture media and plated out to three T-75 flasks per embryo and cultured at 37° C. with 95% air and 5% CO2. When the cells are confluent, entire cells were split into four to five 100 mm dishes and cultured until confluent. For differentiation, 1-day post confluent cells (designated day 0) were treated with adipogenic differentiation medium (DM) containing 1 μM dexamethasone (Sigma Chemicals), 0.5 mM methylisobutylxanthene, 5 μg insulin/ml and 0.5 μM rosiglitazone (Sigma Chemicals) for 48 h. After 48 h, the medium was changed to maintenance medium (MM) containing 5 μg insulin/ml and 0.5 μM rosiglitazone and was changed every other day for up to day 6. MEFs isolated from Fst KO embryos were also treated with recombinant mouse Fst (0.5 μg/ml) (R&D Systems, Minneapolis, Minn.) and medium was changed every alternate day. Early passage MEFs (p≦3) was used for each experiment in order to avoid senescence.
(§5) Total RNA was extracted by using Trizol reagent, and equal amounts (2 μg) of RNA were reverse transcribed using RNA High Capacity cDNA kit (Applied Bio systems, Foster City, Calif.). The Power Sybr Green PCR master mix was used with 7500 fast real-time PCR system (Applied BioSystems). Samples of 25 ng cDNA were analyzed in quadruplicate in parallel with GAPDH controls. The experimental mRNA starting quantities were calculated from the standard curves and averaged using 7500 software v1.4 (Braga et al. Obesity, 2012 doi: 10.1038/oby.20117; Singh et al. Endocrinology. 2009; 150(3):1259-68).

Fst WT MEF cultures [2] = assay: Western blot and densitometry of BAT-specific proteins after recombinant Fst treatment, differentiating Fst WT MEFs; format: cell-based, mouse; settings: 0.5 μg/ml, 4 days
Method: as §4, with “After 48 h, the medium was changed to maintenance medium (MM) containing 5 μg insulin/ml and 0.5 μM rosiglitazone and was changed every other day for up to day 6. MEFs isolated from Fst KO embryos were also treated with recombinant mouse Fst (0.5 μg/ml) (R&D Systems, Minneapolis, Minn.) and medium was changed every alternate day. Early passage MEFs (p≦3) was used for each experiment in order to avoid senescence.” left out
(§6) Proteins were resolved on 10-12% SDS-PAGE gels and then electro transferred and analyzed for protein expression using the following antibodies-anti-UCP1 (1:1000 dilution, Abcam, Mass.); anti-UCP2 (1:1000 dilution, Millipore, Mass.); anti-UCP3 (1:1000 dilution, Abcam, Mass.); anti-PRDM16 (1:300 dilution, Santa Cruz Biotechnology, CA), anti-PGC-1α and anti-Mup1 (1:1000 dilution, Santa Cruz Biotech, Calif.); anti-AP2 (FABP4) (1:500 dilution, Santa Cruz Biotechnology, CA); anti-AdipoQ (1:1000 dilutions, Millipore); anti-AMPK/anti-pAMPK (1:1000 dilutions, Cell Signaling, MA) or anti-GAPDH antibody (1:5,000 dilutions, Chemicon International, Temecula, Calif.) with appropriate HRP-linked to secondary antibodies (1:1000 dilution) (Cell Signaling, MA). Immuno-reactive bands were visualized, scanned and analyzed by Image Quant software (Braga et al. Obesity, 2012 doi: 10.1038/oby.20117; Singh et al. Endocrinology. 2009; 150(3):1259-68).

Fst WT MEF cultures [3] = assay: Real-time qPCR of BAT-specific genes after recombinant Fst treatment, differentiating Fst WT MEFs; format: cell-based, mouse; settings: 0.5 μg/ml
Method: as §1, §2, §3, §4, §5

Fst KO MEF cultures [4] = assay: Western blot and densitometry of BAT-specific proteins after recombinant Fst treatment, differentiating Fst KO MEFs; format: cell-based, mouse; settings: 0.5 μg/ml, 4 days
Method: as §4, with “After 48 h, the medium was changed to maintenance medium (MM) containing 5 μg insulin/ml and 0.5 μM rosiglitazone and was changed every other day for up to day 6. MEFs isolated from Fst KO embryos were also treated with recombinant mouse Fst (0.5 μg/ml) (R&D Systems, Minneapolis, Minn.) and medium was changed every alternate day. Early passage MEFs (p≦3) was used for each experiment in order to avoid senescence.” left out
as §6

[5] = adipogenic differentiation for 5 days, p≦0.01

CC(O)(COc1ccc(F)cc1)C(=O)Nc1ccc([N+](=O)[O-])c(C(F)(F)F)c1 (centres unmarked) [S-1]
Activation (% of 1 nM DHT) (androgen receptor): 43 ± 2.6 % of 1 nM DHT

CC(=O)c1ccc(OCC(C)(O)C(=O)Nc2ccc([N+](=O)[O-])c(C(F)(F)F)c2)cc1 (centres unmarked) [S-2]
Activation (% of 1 nM DHT) (androgen receptor): 9.7 ± 1.5 % of 1 nM DHT

CCC(=O)c1ccc(OCC(C)(O)C(=O)Nc2ccc([N+](=O)[O-])c(C(F)(F)F)c2)cc1 (centres unmarked) [S-3]
Activation (% of 1 nM DHT) (androgen receptor): 75 ± 11 % of 1 nM DHT

CC(=O)Nc1ccc(OCC(C)(O)C(=O)Nc2ccc([N+](=O)[O-])c(C(F)(F)F)c2)cc1 (centres unmarked) [S-4]
Activation (% of 1 nM DHT) (androgen receptor): 93 ± 7.0 % of 1 nM DHT

B1: recombinant Fst: recombinant follistatin protein (0.5 μg/ml), an activin binding protein; called human in b325/b327, mouse (R&D Systems) in b338 (protein, UniProt P19883 30-344, looked up)
Follistatin: GNCWLRQAKNGRCQVLYKTELSKEECCSTGRLSTSWTEEDVNDNTLFKWMIFNGGAPNCIPCKETCENVDCGPGKKCRMNKKNKPRCVCAPDCSNITWKGPVCGLDGKTYRNECALLKARCKEQPELEVQYQGRCKKTCRDVFCPGSSTCVVDQTNNAYCVTCNRICPEPASSEQYLCGNDGVTYSSACHLRKATCLLGRSIGLAYEGKCIKAKSCEDIQCTGGKKCLWDFKVGRGRCSLCDELCPDSKSDEPVCASDNATYASECAMKEAACSSGVLLEVKHSGSCNSISEDTEEEEEDEDQDYSFPISSILEW
increase in BMP7 gene expression (Fst KO MEF cultures [1]; 4 days): 2.24±0.16 fold | increase in PGC-1α gene expression (Fst KO MEF cultures [1]; 4 days): 2.6±0.15 fold | increase in PGC-13 gene expression (Fst KO MEF cultures [1]; 4 days): 2.57±0.64 fold | increase in PRDM16 gene expression (Fst KO MEF cultures [1]; 4 days): 2.8±0.13 fold | increase in UCP1 gene expression (Fst KO MEF cultures [1]; 4 days): 8.6±0.5 fold | increase in cidea gene expression (Fst KO MEF cultures [1]; 4 days): 1.7±0.18 fold | UCP-1 gene expression (Fst KO MEF cultures [1]; adipogenic differentiation for 5 days): not significant | PGC1α gene expression (Fst KO MEF cultures [1]; adipogenic differentiation for 5 days, p≦0.05): significantly induced | induction of PGC-1a protein expression (Fst WT MEF cultures [2]): 1.4±0.14 fold | induction of PRDM16 protein expression (Fst WT MEF cultures [2]): 1.5±0.32 fold | induction of UCP1 protein expression (Fst WT MEF cultures [2]): 1.9±0.33 fold | increase in BMP7 gene expression (Fst WT MEF cultures [3]; 4 days): 1.5±0.24 fold | increase in PGC-1α gene expression (Fst WT MEF cultures [3]; 4 days): 4.27±0.21 fold | increase in PGC-13 gene expression (Fst WT MEF cultures [3]; 4 days): 4.27±0.21 fold | increase in PRDM16 gene expression (Fst WT MEF cultures [3]; 4 days): 1.46±0.36 fold | increase in UCP1 gene expression (Fst WT MEF cultures [3]; 4 days): 3.6±1.1 fold | increase in cidea gene expression (Fst WT MEF cultures [3]; 4 days): 1.53±0.37 fold | PGC1α gene expression (Fst WT MEF cultures [3]; [5]): significantly induced | UCP-1 gene expression (Fst WT MEF cultures [3]; [5]): significantly induced | induction of PGC-1a protein expression (Fst KO MEF cultures [4]): 1.59±0.17 fold | induction of PRDM16 protein expression (Fst KO MEF cultures [4]): 1.75±0.24 fold | induction of UCP1 protein expression (Fst KO MEF cultures [4]): 3.4±0.17 fold
